The values that follow come from publication PMC3413157.

What all share (test): EMSA
(In general: Mobility shift assays separate free from complexed probe on a gel.)

Data set [1] concerns the target T1, Dna2 (hDna2) (human, UniProt P51530 1-1060).
T1 sequence: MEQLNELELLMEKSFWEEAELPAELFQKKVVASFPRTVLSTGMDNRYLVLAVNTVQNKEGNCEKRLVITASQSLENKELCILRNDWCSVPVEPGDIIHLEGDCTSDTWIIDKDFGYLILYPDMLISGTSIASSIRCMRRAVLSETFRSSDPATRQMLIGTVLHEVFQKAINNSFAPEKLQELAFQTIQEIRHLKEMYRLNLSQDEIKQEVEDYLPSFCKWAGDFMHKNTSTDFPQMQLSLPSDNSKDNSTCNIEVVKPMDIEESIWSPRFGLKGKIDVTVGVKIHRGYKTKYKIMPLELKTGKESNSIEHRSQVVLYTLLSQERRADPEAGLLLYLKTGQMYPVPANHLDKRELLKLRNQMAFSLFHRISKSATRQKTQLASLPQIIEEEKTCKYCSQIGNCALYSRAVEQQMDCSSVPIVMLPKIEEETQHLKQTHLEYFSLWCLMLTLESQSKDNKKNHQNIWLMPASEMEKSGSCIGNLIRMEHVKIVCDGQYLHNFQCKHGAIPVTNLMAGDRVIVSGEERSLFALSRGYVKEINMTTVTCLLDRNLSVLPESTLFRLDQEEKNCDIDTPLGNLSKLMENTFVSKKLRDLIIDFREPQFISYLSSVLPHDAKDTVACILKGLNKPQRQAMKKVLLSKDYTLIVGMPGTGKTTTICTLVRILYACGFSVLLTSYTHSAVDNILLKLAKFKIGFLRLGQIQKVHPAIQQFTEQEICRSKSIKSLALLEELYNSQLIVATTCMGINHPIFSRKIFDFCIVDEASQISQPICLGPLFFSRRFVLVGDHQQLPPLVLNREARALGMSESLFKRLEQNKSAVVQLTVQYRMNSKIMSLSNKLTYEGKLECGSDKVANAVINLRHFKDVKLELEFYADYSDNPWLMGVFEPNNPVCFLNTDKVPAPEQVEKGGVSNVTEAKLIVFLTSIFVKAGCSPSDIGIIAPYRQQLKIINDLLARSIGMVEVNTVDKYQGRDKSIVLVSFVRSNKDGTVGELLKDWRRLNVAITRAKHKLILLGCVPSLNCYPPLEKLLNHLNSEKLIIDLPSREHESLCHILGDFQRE

Data set [2] has as its target T2, FEN1 (hFEN1) (human, UniProt P39748 1-380).
The target of data set [3] is Dna2 (hDna2);FEN1 (hFEN1) (human;human, UniProt P51530;P39748 1-1060;1-380, |).
Data set [4] addresses T1, Dna2 (hDna2). The source holds these as a separate data set.
The target in data set [5] is T1, Dna2 (hDna2). The source holds these as a separate data set.
In data set [6] the target is T2, FEN1 (hFEN1). This is another data set of the same source.
The target in data set [7] is T1, Dna2 (hDna2). The source holds these as a separate data set.
Data set [8] has as its target T1, Dna2 (hDna2). This is another data set of the same source.
For data set [9], the target named is T2, FEN1 (hFEN1). This is another data set of the same source.
The target in data set [10] is T1, Dna2 (hDna2). The source holds these as a separate data set.

Where two headings read alike, the source gives them in different places.

T2 sequence (P39748 whole entry): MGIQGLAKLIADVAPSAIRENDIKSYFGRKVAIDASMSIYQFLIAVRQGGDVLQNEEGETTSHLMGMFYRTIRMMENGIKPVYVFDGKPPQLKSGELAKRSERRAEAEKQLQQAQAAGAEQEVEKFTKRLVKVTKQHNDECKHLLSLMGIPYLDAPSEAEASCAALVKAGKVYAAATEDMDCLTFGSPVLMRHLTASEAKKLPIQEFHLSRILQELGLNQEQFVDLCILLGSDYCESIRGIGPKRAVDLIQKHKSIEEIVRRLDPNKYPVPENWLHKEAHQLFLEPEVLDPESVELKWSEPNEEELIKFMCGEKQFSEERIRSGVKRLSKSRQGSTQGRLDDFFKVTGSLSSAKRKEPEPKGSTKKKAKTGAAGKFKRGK
Sequence of Dna2 (hDna2);FEN1 (hFEN1) (P39748 whole entry, one chain of several): as the sequence (P39748 whole entry) above

B1: 30 nt double flap (U2:T3:D2.30) (mixed)
DNA 1: TTCTACTTCCAATTGATACGCGCTATAACCCCCGTCCACCCGACGCCACCTCCTGC
DNA 2: GCAGGAGGTGGCGTCGGGTGGACGGGATTGAAATTTAGGCTGGCACGGTCG
DNA 3: CGACCGTGCCAGCCTAAATTTCAATT
B1: the binding result (in the data set with Dna2 (hDna2) [1]; with FEN1 (hFEN1) [2]; in [3]) was “binds” throughout.

B2: 30 nt flap, 5 nt gap (U3:T3:D2.30) (mixed)
DNA 1: B1 DNA 1
DNA 2: B1 DNA 2
DNA 3: CGACCGTGCCAGCCTAAATT
Take B2: in the data set with Dna2 (hDna2) [4], the binding result is “binds”.

B3: 30 nt flap, 2 nt gap (U4:T3:D2.30) (mixed)
DNA 1: B1 DNA 1
DNA 2: B1 DNA 2
DNA 3: CGACCGTGCCAGCCTAAATTTCA
Consider B3, for which, in the data set with Dna2 (hDna2) [5], the binding result is “binds”.

B4: 30 nt 5'-tail (T4:D2.30) (mixed)
DNA 1: B1 DNA 1
DNA 2: GCAGGAGGTGGCGTCGGGTGGACGGG
Regarding B4, the binding result is recorded as “no binding” with FEN1 (hFEN1) [6] and “binds” in the data set with Dna2 (hDna2) [7].

B5: 15 nt 5'-tail (T4:D2.15) (mixed)
DNA 1: ATACGCGCTATAACCCCCGTCCACCCGACGCCACCTCCTGC
DNA 2: GCAGGAGGTGGCGTCGGGTGGACGGG
B5: the binding result with FEN1 (hFEN1) [6] was “no binding”.

B6: 2 nt double flap (U1:T1:D1.2) (mixed)
DNA 1: GTCGTTTTACAACGACGTGACTGGG
DNA 2: GCCCAGTCACGTCGTTGTAAAACGGGTCGTGACTGGGAAAACCCTGGCG
DNA 3: CGCCAGGGTTTTCCCAGTCACGACCA
Turning to B6, the binding result with Dna2 (hDna2) [8] is recorded as “no binding”.

B7: 20 nt double flap (U1:T1:D1.20) (mixed)
DNA 1: TTAGTTAATTCACTGGCCGTCGTTTTACAACGACGTGACTGGG
DNA 2: B6 DNA 2
DNA 3: CGCCAGGGTTTTCCCAGTCACGACCA
B7: the binding result in the data set with FEN1 (hFEN1) [9] was “binds”.

B8: 10 nt double flap (U1:T1:D1.10) (mixed)
DNA 1: CACTGGCCGTCGTTTTACAACGACGTGACTGGG
DNA 2: B6 DNA 2
DNA 3: CGCCAGGGTTTTCCCAGTCACGACCA
With B8, in the data set with FEN1 (hFEN1) [9], the binding result is “binds”.

B9: 5 nt double flap (U1:T1:D1.5) (mixed)
DNA 1: GCCGTCGTTTTACAACGACGTGACTGGG
DNA 2: B6 DNA 2
DNA 3: CGCCAGGGTTTTCCCAGTCACGACCA
Regarding B9, the binding result in the data set with Dna2 (hDna2) [8] was “no binding”; with FEN1 (hFEN1) [9] it was “binds”.

B10: 30 nt double flap (U1:T1:D1.30) (mixed)
DNA 1: TTCACGCCTGTTAGTTAATTCACTGGCCGTCGTTTTACAACGACGTGACTGGG
DNA 2: B6 DNA 2
DNA 3: CGCCAGGGTTTTCCCAGTCACGACCA
Turning to B10, the binding result in the data set with Dna2 (hDna2) [10] and in the data set with FEN1 (hFEN1) [9] was “binds” each time.

B11: 15 nt double flap (U1:T1:D1.15) (mixed)
DNA 1: TAATTCACTGGCCGTCGTTTTACAACGACGTGACTGGG
DNA 2: B6 DNA 2
DNA 3: CGCCAGGGTTTTCCCAGTCACGACCA
As to B11, the binding result in the data set with FEN1 (hFEN1) [9] is given as “binds”.
